From patent publication US20220280543A1, “DDX17 AND NLRC4 TARGETING FOR INFLAMMATORY DISEASES” (University of Virginia Patent Foundation, priority 2019, published 2022)
“Also recorded” adds a separate entry of the source.

What was measured:
[1] = tested on: NLRC4 phosphorylation (site S533); experiment: SINE RNA induced NLRC4 phosphorylation (S533) in BMDM, Western blot; assay type: cell-based, mouse; details: SINE RNAs each at 100 pmol, polyI:C 10 μg/ml (FIG. 1)
Description: FIG. 1. SINE RNA induced NLRC4 phosphorylation (site S533) in mice macrophage (BMDM). Mouse bone marrow derived macrophage (BMDM) were treated with SINE RNAs (Alu (SEQ ID NO: 86), B1 (SEQ ID NO: 87), and B2 (SEQ ID NO: 88), each at 100 pmol), and polyI:C (10 μg/ml). Phosphorylated Nlrc4 (p-Nlrc4) and total Nlrc4 (t-Nlrc4) were detected by Western blot. Actin is provided as a loading control. The p-NLRC4 bands were indicated by black arrow.
Previous studies have shown that NLRC4 inflammasome activation in response to Salmonella exposure requires two steps for its activation, phosphorylation on Ser533 residue of NLRC4 and NAIP mediated oligomerization of NLRC4. […] Moreover, treatment with SINE RNAs induced caspase-1 p20 cleavage, indicative of inflammasome activation (FIG. 2). For the subsequent experiments in this study, we used Alu RNA (SEQ ID NO: 86) as the stimulus to activate the NLRC4 inflammasome. To date, two kinases are reported to phosphorylate NLRC4 at S533: protein kinase C delta (PKCδ) and leucine rich repeat-containing kinase-2 (LRRK2). To explore the roles of these kinases in Alu RNA (SEQ ID NO: 86) induced NLRC4 phosphorylation, we pretreated BMDMs with pharmacological inhibitors of LRRK2 (GSK2578215A, GSK) and PKCδ (Rottlerin, Rot) respectively.

NLRC4 inflammasome = experiment: Flagellin-induced caspase-1 activation in wild type BMDM pre-treated with NRTIs, immunoblot; assay type: cell-based, mouse; details: pre-treated 1 hour, flagellin 3 μg/ml (FIG. 31)
Description: FIG. 27. NRTI block Flagellin induced NLRC4 inflammasome in BMDM. Wild type BMDM cells were pre-treated with exemplary NRTIs (D4T, 3TC) at 100 μM for 1 hour, and then stimulated with flagellin transfection (3 μg/ml). Supernatant and cell lysate were collected for Caspase-1 detection. […] The caspase-1 (p20) bands are indicated with black arrow.
FIG. 28. NRTI (3TC) blocks flagellin-induced NLRC4 inflammasome in a dose dependent manner. Wild type BMDM cell were pre-treated with indicated dose of NRTI (3TC) for 1 hour, and then stimulated with Flagellin transfection (3 μg/ml). Supernatants were collected for Caspase-1 detection. […] The caspase-1 (p20) bands are indicated with black arrow.
FIG. 31. Modified NRTIs (K8, K9) block flagellin-induced NLRC4 inflammasome in BMDM. Wild type BMDM cell were pre-treated with regular NRTI (D4T, 3TC), the modified NRTIs 3-Methyl-3TC (K9) or 2-Ethyl-AZT (K8), or NLRP3 inhibitors (MCC950, CY-09) for 1 hour, and then stimulated with flagellin transfection (3 μg/ml). Supernatants were collected for secreted caspase-1 detection. […] The caspase-1 (p20) bands are indicated with black arrow.
Nucleoside reverse transcriptase inhibitors (NRTIs) are HIV therapeutics that inhibit retrovirus replication. We have previously shown that NRTIs inhibit P2X7-mediated NLRP3 inflammasome activation by an endogenous retroelement Alu RNA (SEQ ID NO: 86). Activation of NLRP3 inflammasome by Alu RNA (SEQ ID NO: 86) causes the death of retinal pigment epithelium (RPE) in geographic atrophy, a severe form of AMD. […] Currently, multiple NLRP3 inflammasome inhibitors such as MCC950, CY09 are available however, there are no inhibitors of NLRC4. So, a need exists to develop inhibitors of NLRC4 inflammasome to study NLRC4 driven diseases. Here, we show for the first time that NRTIs block flagellin induced NLRC4 inflammasome. We pretreated flagellin transfected BMDMs with DT4 and 3TC to examine caspase-1 activation.
NLRC4 oligomerization is another hallmark of inflammasome activation where high-molecular mass NLRC4 protein complexes are assembled. […]

[2] = biological target: Ddx17 (bait of the Ddx complex, Table 3) (UniProt Q92841); experiment: IP tandem mass spectrometry of the Ddx17 complex, mock-treated
Chain of Ddx17 (bait of the Ddx complex, Table 3) (Q92841 whole entry, one chain of several): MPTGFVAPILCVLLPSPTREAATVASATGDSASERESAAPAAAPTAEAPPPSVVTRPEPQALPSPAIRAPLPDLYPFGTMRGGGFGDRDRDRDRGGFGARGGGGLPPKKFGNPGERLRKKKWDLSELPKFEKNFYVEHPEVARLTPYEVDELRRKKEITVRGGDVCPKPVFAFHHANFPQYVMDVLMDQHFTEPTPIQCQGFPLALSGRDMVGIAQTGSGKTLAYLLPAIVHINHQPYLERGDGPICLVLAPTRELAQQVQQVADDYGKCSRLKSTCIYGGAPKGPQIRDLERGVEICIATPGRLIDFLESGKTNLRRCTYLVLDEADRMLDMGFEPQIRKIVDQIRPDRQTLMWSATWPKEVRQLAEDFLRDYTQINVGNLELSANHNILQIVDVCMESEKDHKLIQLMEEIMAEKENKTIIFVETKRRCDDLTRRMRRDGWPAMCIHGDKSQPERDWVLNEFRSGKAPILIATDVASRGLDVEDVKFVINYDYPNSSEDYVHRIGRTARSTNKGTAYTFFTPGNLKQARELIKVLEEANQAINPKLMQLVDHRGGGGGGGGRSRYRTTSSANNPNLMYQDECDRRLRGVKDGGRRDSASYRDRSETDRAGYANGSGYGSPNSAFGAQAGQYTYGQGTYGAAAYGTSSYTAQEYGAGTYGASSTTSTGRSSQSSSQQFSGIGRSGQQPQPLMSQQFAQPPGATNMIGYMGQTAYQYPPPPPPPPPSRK

[3] = biological target: Ddx17 (bait of the Ddx complex, Table 3) (UniProt Q92841); experiment: IP tandem mass spectrometry of the Ddx17 complex, Alu RNA-treated
caspase-1 = experiment: Alu RNA induced caspase-1 activation in THP1 cells after siRNA knockdown; assay type: cell-based, human; details: siRNA knockdown (FIGS. 11A, 11B)
From the text: FIGS. 11A and 11B. Ddx17 involved in Alu RNA (SEQ ID NO: 86) induced inflammasome independent of its microprocessor function. DDX17 is a component of microprocessor complexes with DDX5 and Drosha. To test whether the microprocessor function of DDX17 is required for Alu RNA (SEQ ID NO: 86) induced inflammasome, we measured caspase-1 activation in THP cells with DDX5 or Drosha knockdown (siRNA for DDX5: GGAAAUUACAGUUAGAGGU; SEQ ID NO: 89); siRNA for Drosha: GACAAGUUGAUAGGAUAUA; SEQ ID NO: 90). FIG. 11A. siRNA mediated Ddx17 knockdown, but not Ddx5 in THP1 cells, blocked Alu RNA (SEQ ID NO: 86) induced caspase-1 activation. […] The caspase-1 (p20) bands were indicated with black arrows.
We next examined whether DDX5 or DDX17 was the sensor for Alu RNA (SEQ ID NO: 86) induced NLRC4 inflammasome activation. Due to the high degree of similarity in the sequences of DDX5 and DDX17, we designed 3 siRNAs targeting DDX5 alone, DDX17 alone, or both DDX5 and DDX17, and confirmed their target efficiency in THP1 cells (FIG. 11A). […] Therefore, we tested whether Drosha is also involved in SINE RNA-DDX17-NLRC4 axis. […] These observations implicate that DDX17 mediated SINE RNA induced NLRC4 inflammasome is independent of microprocessor function.

ASC specks = experiment: SINE RNA induced ASC specks in BMDM, immunofluorescence; assay type: cell-based, mouse; details: BMDMs, transfection vs Mock (FIG. 3A)
Description: FIGS. 3A and 3B. SINE RNA-induced ASC oligomerization is dependent on NLRC4 (BMDM). FIG. 3A. Immunofluorescence images of endogenous ASC specks and NLRC4 puncta in BMDMs after transfected with Alu (SEQ ID NO: 86) or B2 (SEQ ID NO: 88) RNA or transfection reagents only (Mock). […] Moreover, NLRC4 proteins assembled as puncta, and co-resided with ASC specks. FIG. 3B. ASC oligomerizations were evaluated in wild-type and Nlrc4^−/− BMDMs through cross-linking and western blot. […] The bands of oligomeric ASC protein were indicated by black arrow.
The activated NLRC4 inflammasome undergoes oligomerization by assembling into high-molecular mass multiprotein complexes. We first investigated in situ assembling of NLRC4 and apoptosis speck (ASC) like protein complexes in response to SINE RNA treatment of BMDMs. Immunofluorescence studies show increased NLRC4 and ASC specks in SINE RNA-treated BMDMs compared to mock-treated cells (FIG. 3A). To assess NLRC4 inflammasome assembly, WT and NLRC4 KO BMDM cells were treated with Alu RNA (SEQ ID NO: 86). Disuccinimidyl suberate (DSS) cross-linked lysates were resolved using denaturing SDS-PAGE to detect ASC oligomers and cell lysates were resolved using native polyacrylamide gel electrophoresis (NATIVE-PAGE) to detect NLRC4 oligomerization. […] NLRC4/ASC oligomerization is essential for the cleavage of pro-caspase-1 into its active form p20 and IL-1β release.

Coverage (%) [2] [%]	Peptides [2] [peptides]	Coverage (%) [3] [%]	Peptides [3] [peptides]	Molecule	further results
–	–	–	–	poly(I:C)	NLRC4 phosphorylation on S533 in BMDMs [1]: did not induce
–	–	–	–	2-Ethyl-AZT [K8]	flagellin induced caspase-1 activation, modified NRTIs (NLRC4 inflammasome): blocked; also recorded: inhibited
0	0	6.6	2	Nlrp1 (Table 3) (from UniProt Q9C000 1-1473) (receptor)	–
–	–	–	–	siDrosha: siRNA for Drosha: GACAAGUUGAUAGGAUAUA; SEQ ID NO: 90 (listed as RNA, chemistry not given here)	caspase-1 cleavage in Alu RNA treated THP1 cells (caspase-1): did not
0	0	2.9	2	Nlrp8 (Table 3) (from UniProt Q86W28 1-1048) (receptor)	–
17	–	25	15	Ddx5 (Table 3) (from UniProt P17844 1-614) (enzyme)	–
–	–	–	–	3-Methyl-3TC [K9]	flagellin induced caspase-1 activation, modified NRTIs (NLRC4 inflammasome): blocked; also recorded: inhibited
0	0	3.7	3	Nlrp3 (Table 3) (from UniProt Q96P20 1-1036) (receptor)	–
–	–	–	–	DDX5 siRNA: siRNA for DDX5: GGAAAUUACAGUUAGAGGU; SEQ ID NO: 89 (chemistry not fully specified)	caspase-1 cleavage in Alu RNA treated THP1 cells (caspase-1): did not do so
–	10	–	–	Ddx5 (Table 3) (from UniProt P17844 1-614)	–
–	–	–	–	B2: mouse SINE B2 RNA, SEQ ID NO: 88 (nucleic acid, Artificially synthesized B2 RNA) GGGCUGGAGAGAUGGCUCAGUGGUUAAGAGCACCUGACUGCUCUUCCAGAGGUCCUGAGUUCAAUUCCCAGCAACCACAUGGUGGCUCACAACCAUCUGUAAUGAGAUCUGAUGCCCUCUUCUGGUGUGUCUGAAGACAGCUACAGUGUACUUACAUAUAAUAAAUAAAUAAAUAAAUAAAUCUUAAAAAAAAAAAAAAGAAAGAAAAA	NLRC4 phosphorylation on S533 in BMDMs [1]: induced; formation of ASC specks (ASC specks): induced the formation of ASC specks
